# According to patent US20120107364A1 (ACTGEN, published 2012):
# T1: PODXL2, positions 1 to 350 (human, UniProt O00592 23-382)
# T1 construct: One of the 14 C-terminal truncations; Expressed on Ba/F3 cells; also called R350
# T1 sequence: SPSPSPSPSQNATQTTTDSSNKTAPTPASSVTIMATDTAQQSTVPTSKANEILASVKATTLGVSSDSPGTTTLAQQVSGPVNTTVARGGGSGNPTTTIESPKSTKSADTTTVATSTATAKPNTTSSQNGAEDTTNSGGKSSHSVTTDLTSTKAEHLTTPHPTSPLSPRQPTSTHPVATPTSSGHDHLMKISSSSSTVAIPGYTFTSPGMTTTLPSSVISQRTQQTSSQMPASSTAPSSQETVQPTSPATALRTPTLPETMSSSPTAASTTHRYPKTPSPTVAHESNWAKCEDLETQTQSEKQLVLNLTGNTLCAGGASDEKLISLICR
# T2: PODXL2, positions 1 to 300 (human, UniProt O00592 23-332)
# T2 construct: Shortest of the 14 C-terminal truncations; Expressed on Ba/F3 cells; also called R300
# T2 sequence: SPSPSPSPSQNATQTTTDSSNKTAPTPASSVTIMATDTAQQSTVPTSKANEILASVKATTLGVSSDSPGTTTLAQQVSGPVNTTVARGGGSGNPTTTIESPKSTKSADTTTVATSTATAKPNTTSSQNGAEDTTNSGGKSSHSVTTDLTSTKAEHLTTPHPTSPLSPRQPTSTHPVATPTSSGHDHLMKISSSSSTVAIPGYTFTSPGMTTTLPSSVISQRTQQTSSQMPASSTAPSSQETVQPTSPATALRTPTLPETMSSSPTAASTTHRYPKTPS
# T3: PODXL2, positions 1 to 420 (human, UniProt O00592 23-452)
# T3 construct: Encoded as positions 1-420 in pMX-SST and expressed on Ba/F3 cells; The vector-encoded part is not described; also called R420
# T3 sequence: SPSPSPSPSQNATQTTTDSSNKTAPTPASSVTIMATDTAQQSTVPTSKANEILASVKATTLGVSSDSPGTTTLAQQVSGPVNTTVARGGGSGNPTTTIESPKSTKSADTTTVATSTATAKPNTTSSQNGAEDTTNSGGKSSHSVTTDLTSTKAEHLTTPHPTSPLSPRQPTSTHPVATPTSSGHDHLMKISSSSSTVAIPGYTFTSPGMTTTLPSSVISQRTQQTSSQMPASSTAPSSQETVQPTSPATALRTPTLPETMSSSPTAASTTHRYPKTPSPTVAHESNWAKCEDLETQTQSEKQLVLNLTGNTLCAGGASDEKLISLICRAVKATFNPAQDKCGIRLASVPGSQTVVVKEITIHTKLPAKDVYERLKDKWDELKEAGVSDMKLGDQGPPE
# T4: PODXL2, positions 1 to 400 (human, UniProt O00592 23-432)
# T4 construct: Encoded as positions 1-400 in pMX-SST and expressed on Ba/F3 cells; The vector-encoded part is not described; also called R400
# T4 sequence: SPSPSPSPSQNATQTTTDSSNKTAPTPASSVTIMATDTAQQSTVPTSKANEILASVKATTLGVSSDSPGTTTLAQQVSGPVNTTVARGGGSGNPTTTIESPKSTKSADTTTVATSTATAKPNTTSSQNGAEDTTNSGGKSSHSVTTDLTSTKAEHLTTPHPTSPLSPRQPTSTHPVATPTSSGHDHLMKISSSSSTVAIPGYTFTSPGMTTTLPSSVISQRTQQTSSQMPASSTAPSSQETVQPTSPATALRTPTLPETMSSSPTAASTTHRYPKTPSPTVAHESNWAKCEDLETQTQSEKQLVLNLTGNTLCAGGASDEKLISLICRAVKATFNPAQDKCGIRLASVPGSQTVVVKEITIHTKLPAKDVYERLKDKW
# T5: PODXL2, positions 1 to 380 (human, UniProt O00592 23-412)
# T5 construct: One of the 14 C-terminal truncations; Expressed on Ba/F3 cells; also called R380
# T5 sequence: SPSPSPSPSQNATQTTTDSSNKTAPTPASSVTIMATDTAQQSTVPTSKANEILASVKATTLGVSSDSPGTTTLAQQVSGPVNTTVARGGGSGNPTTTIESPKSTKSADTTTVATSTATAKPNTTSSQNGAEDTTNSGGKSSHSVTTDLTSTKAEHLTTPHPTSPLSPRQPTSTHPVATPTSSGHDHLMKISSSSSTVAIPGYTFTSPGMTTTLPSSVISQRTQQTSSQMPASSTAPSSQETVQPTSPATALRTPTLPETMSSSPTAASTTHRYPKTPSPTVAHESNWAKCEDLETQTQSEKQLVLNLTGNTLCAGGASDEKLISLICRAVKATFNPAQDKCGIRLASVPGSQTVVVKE
# Columns and labels:
# Experiment in all cases: flow cytometry on Ba/F3 cells expressing the truncated PODXL2
# [1] = target: T1, PODXL2, positions 1 to 350
# Description: (§1) To each sample of the cell suspension, 50 μl of the hybridoma culture supernatant or 2-μg/ml of the purified antibody (hereinafter, referred to as an “antibody solution”) was added, and the antibody was reacted with the cells. As an isotype control of the antibody solution, a wash buffer containing 2 μg/ml of each of mouse IgG1 (BioLegend, 400412), mouse IgG2a (BioLegend, 400224), and mouse IgG2b (BioLegend, 400324) was used. The hybridoma culture supernatant was reacted with the target cells at room temperature for 30 minutes, followed by centrifugation at 700×g for 2 minutes. Then, a culture supernatant was removed. Further, 100 μl of a wash buffer was added, followed by centrifugation at 700×g for 2 minutes again. A supernatant was removed. Then, the cells were washed.
# (§2) Next, to the cell pellets after the washing, 50 μl of Goat anti-mouse IgG, F(ab′) 2-PE (PE=phycoerythrin, Beckman Coulter, IM0855) diluted 200-fold with a wash buffer was added as a secondary antibody for detection, and reacted in the dark at room temperature for 30 minutes. The reaction was followed by centrifugation at 700×g for 2 minutes. A supernatant was removed. Further, 100 μl of a wash buffer was added, followed by centrifugation at 700×g for 2 minutes again. A supernatant was removed. Then, the cells were washed. Thereafter, the cells were suspended in an appropriate amount of a wash buffer. The reactivity between the antibody and the cells was analyzed by a flow cytometer (Beckman Coulter, FC500 MPL).
# (§3) Thereafter, by the same method as in Example 1 (4) (the virus packaging and thereafter), Ba/F3 cells containing the PODXL2 gene sequences of various chain lengths were prepared. Further, by the same method as in Example 4, the reactivity between the ACT36-27_{—}5D1 antibody and the Ba/F3 cells expressing the PODXL2 molecules of various chain lengths was analyzed by a flow cytometer (FIG. 10).
# [2] = target: T2, PODXL2, positions 1 to 300
# Description: as §1, §2, §3
# [3] = target: T3, PODXL2, positions 1 to 420
# Description: as §1, §2, §3
# [4] = target: T4, PODXL2, positions 1 to 400
# Description: as §1, §2, §3
# [5] = target: T5, PODXL2, positions 1 to 380
# Description: as §1, §2, §3
binder,measurement,setting,value
"ACT36-27-5D1 antibody (antibody, V domains shown, also called anti-PODXL2 antibody ACT36-27-5D1; anti-ACT36-27-5D1 monoclonal antibody) VH: EVQLQQSGPELVKPGASVKMSCKASGYTFTSYVMHWVKQKPGQGLEWIGYIHPYNDGIKYNEKFKGKATLTSDKSSSTAYMDLSSLTSEDSAVYYCARSWDWYFDVWAAGTTVTVSS VL: QIVLTQSPAIMSASPGEKVSMTCSASSSVSYMHWYQQKSGTSPKRWIYDTSKLASGVPARFSGSGSGTSYSLTISSMEAEDAATYYCLQWSSNPPTFGGGTKLE",binding result,[1],no binding
same,binding result,[2],no binding
same,binding result,[3],binds
same,binding result,[4],no binding
same,binding result,[5],no binding
